Data published in patent publication US11099176B2 (Duke University, priority 2015, dated 2021).

B1: rsLacBP12: protein from Rhodobacter sphaeroides (SEQ ID NO: 12, 26, 126) (protein)
chain: MTAFEKKAAYSRRSFLRTGALAGGAAAGSVLAAPAVLAQAPLVMKMQTSWPASDIWMDFAREYVTRVEEMSGGRIKVDLLPAGAVVGAFQVMDAVHDGVIDASHSVSAYWYGKSKAASFFGTGPVFGGSATTMLGWFYQGGGQDLYRELTQDILGMNIVGFYGFPMPAQPFGWFKTEVNGVADIQGFKYRTVGLAADLLQAMGMSVAQLPGGEIVPAMERGVIDAFEFNNPSSDMRFGAQDVAKNYYLSSYHQASESFEYTFNRDFYEDLDPDLQAILKYAVEAASTSNTALALRQYSADLATLAAENGVAVHRTPKDILSGQLEAWDKLIVDLEADEFFKKVLDSQRAWVEQVSYYELMNAADLGLAYEHHFPGKLKL
modifications: Rhodobacter sphaeroides
B2: pgLacBP10: protein from Polymorphum gilvum (SEQ ID NO: 10, 24, 124) (protein)
chain: MTEISRRGLLAGSVFGGVALAAPTVARAQEAVEWRMQALWDAGTTPFEFEKKFVERVGELTEGRFKITLYSAGQIVPANQAFDAVRSGAFEMMKTFDGYEAGKIPAFAFTSTIPFGFPQSDQYEAWFYELGGLDLAREAYAKGGLFYIAPTVYGEEPMHSTVKIESIADMAGKKGRFVGLASAVMADLGVAVSPLATAEVYTALEKGLIDFADRGDLTANYEAGLGEVAKFIILPGVHQPTTATSYVANQAAYQKLPDGFKAALAVAAREISGSLRQHILVQDMEVLTKYKDQGVEVVRLDAADIAAARAKAVESWEKATKGDELATRVLKGQVDFMTSLGLL
B3: fsLacBP13: protein from Flexistipes sinusarabici (SEQ ID NO: 13, 27, 127) (protein, listed as Flexistipes sinusarabici)
chain: MGMMKKLLYSLLIILLVASAGFTAEKKIRWKLAMTWGPTLHPLSDTAEHMAEIVKELSDGNFVINIDASNVHKAPFGIFDMVKLGQYEMGHTASYYYKGKNIAFLPLTTMPFGMTAPEQYAWFYYGGGLELMQEAYTKHGMLAFPGGNTGNQMGGWFTKEINSLDDLKGLKMRIPGFAGQIMSKLGVTVTNIPPGELYTALERGTVDAVEWTGPGMDINMGFHKIAKYYYTGWHEPGSEVEFLINEKEYNKLPEKYKKILKIAMKTAAYDMYIQSYEMNAEAWQQMKEKYPDIKVKVFPEEVLKEMKTAYDNLVASYEKESPMFKKIMESKRAYLDKVRDWTHISDYLYLKSTSESNLN
B4: msLacBP6: lactate-binding protein from Marinobacter sp. (SEQ ID NO: 6, 20, 120) (protein)
chain: MTDITCKIETKGSARRRGFLKTLAVSAAISATLLASSVQAATTWKIQSVWDAGTVGYDLFKEWCDGMEEKTGGELKFTCFPAKAVAADNNGLFDAVRNGVLQGMNPFTLYWSGKIPASVFLSSYPAGPDQPHQWDTMFYSLGMLEKTREIYKKFGLFYVGPIQHDANIIHSKQPINSLDDLKGLKMRLPGGMVAEVFAKFGVAAVSLPGSDIFPALEKGTIDAADYVGPAVNWELGFSQVTKYILMGPPGIMSVYQPVDLMDLTVNLRAWNALDPKLQQIVEDEVRIYSQKHYLAIQKRNIEAMKKFEAAGTTVTRLSQEDLQEFRRAAIPIWYSWANKDEDAREIFDMQLEYMMNDTVGYITEDDIKGMN
B5: psLacBP11: protein from Pseudomonas stuztzeri (SEQ ID NO: 11, 25, 125) (protein)
chain: MKRRHLFGAAALLATLALAGCKDEQSQAPNQQAAGEPAKTYHWKMVTAWPKNYPGLGTSAERLAERVNAMSGGRLTIKVYAAGELVPALEVFDAVSRGTAELGHGASYYWKGKVPTAQFFTSVPFGLSTSEMNAWLSKGGGQAFWDEAYAPFGVKPLVIGNTGMQMGGWYNKEINSLTDLKGLKIRMPGLGGEVLSRLGATTVNLPGGEVFTALQTGAIDATDWVSPYNDLAFGLHKAARYYYYPGWQEPQAVLELLINQKAFDSLPADLQAIVTEASLAASRDMHDDYVYNNALALEQLKQQGTELKRFPDEVLAAMREQSDLILGELAAQSELNGRIWASMKAFQAQVEPMHEISEKELYNWR
B6: Y187C (conjugate)
chain: MATTWKIQSVWDAGTVGYDLFKEWCDGMEEKTGGELKFTCFPAKAVAADNNGLFDAVRNGVLQGMNPFTLYWSGKIPASVFLSSYPAGPDQPHQWDTMFYSLGMLEKTREIYKKFGLFYVGPIQHDANIIHSKQPINSLDDLKGLKMRLPGGMVAEVFAKFGVAAVSLPGSDIFPALEKGTIDAADCVGPAVNWELGFSQVTKYILMGPPGIMSVYQPVDLMDLTVNLRAWNALDPKLQQIVEDEVRIYSQKHYLAIQKRNIEAMKKFEAAGTTVTRLSQEDLQEFRRAAIPIWYSWANKDEDAREIFDMQLEYMMNDTVGYITEDDIKGMN
modifications: conjugated fluorophore; msLacBP6 (with signal peptide replaced with M)
B7: tsLacBP7: lactate-binding protein from Thermus sp. (SEQ ID NO: 7, 21, 121) (protein)
chain: MQAPRFRWRIQSAWDAGTVGYTLFQRFAERVKELTDGQIEIQTFPAGAVVGTFDMFDAVKTGVLDGMHPFTLYWAGRMPVTAFLSSYPLGLDRPDQWETWYYALGGLDLARRAFEEQGLFYVGPVQHDYNLIHSKKPIKSFEDFKGVKLRVPGGMIADVFSAAGAATVLLPGGEVYPALERGVIDAADFVGPAVNYNLGFHQVTKYIIMGPPETPAIHQPVDLADITLNLSRWRAVPKNLQERFEAAVHEWSWIHYAGIQKANLETWPKYKAAGVQIIRLTTVDVRKFRRVAIPIWFKWAKQDKYAREAFASQLEYMKALGYVTDADVRGLSL
modifications: tsLacBP7 (with signal peptide replaced with M)
B8: ttLacBP1: lactate-binding protein from Thermus thermophilus, seed sequence (SEQ ID NO: 1, 15, 115) (protein, listed as Thermus thermophilus)
chain: MKRVSRRAFLRRLGVGVAATAAFSPLAVAQARRYRWRIQTAWDAGTVGYSLFQKFTERVKELTDGQLEVQPFPAGAVVGTFDMFDAVKTGVLDGMNPFTLYWAGRMPVTAFLSSYALGLDRPDQWETWFYSLGGLDIARRAFAEQGLFYVGPVQHDLNIIHSKKPIRRFEDFKGVKLRVPGGMIAEVFAAAGASTVLLPGGEVYPALERGVIDAADFVGPAVNYNLGFHQVAKYIIMGPPETPAIHQPVDLMDFTINLNRWRSLPKPLQERFIAAVHEYSWIHYAGIQKANLEAWPKYRQAGVEVIRLSNEDVRKFRRLAIPIWFKWAKMDKYSREAFASQLEYMKGIGYVTDEELKGLSL
B9: adLacBP9: protein from Anaeromyxobacter dehalogenans (SEQ ID NO: 9, 23, 123) (protein)
chain: MKKTTSRSQPDTAPKASRRSFLKKAALGAAGVAAGAAAPTIHVAQAPITLRFQSTWPQKDIFHEFALDYAKKVNEMSGGRLKIEVLAAGSVVKAFDLLDAVSKGTLDGGHGVVAYWYGKNTALALWGSGPAFGMDPNMVLAWHHYGGGRQLLEEIYRSLNLDVVSLMYGPMPTQPLGWFKQKPIAKPDDMKGLKFRTVGLSIDIFNGLGAAVNALPGAEIVPAMDRGLLDAAEFNNASSDRVLGFPDVSKICMLQSFHQCSEQFEILFNGKRFQALPADLKSIISIAAQAASADMSWKAIDRYSSDYFEMRDKQGVKFYSTRPEILKRQLEIWDQVMEKRAAENPTFKKVLESQRRFAQRAARWQNDTNVDFKMAYNHFFGGKKKAT

Key:
[1] = Thermal stability by SYPRO Orange thermal melt in a Roche LightCycler; assay type: physicochemical; details: for Thermostability apoTm: ligand-free protein, SYPRO Orange, Roche LightCycler
Method: The lactate-binding properties of these proteins were determined experimentally (Table 3). These experiments comprise four successive steps: • 1. Synthetic gene construction. The amino acid sequence of the homology leads are back translated into DNA sequences. […] The predicted gene sequences are assembled de novo from synthetic oligonucleotides. • 2. Heterologous protein expression of the homologues in E. coli.

[2] = Lactate-mediated fluorescence emission response of fluorescent conjugates (cysteine and fluorophore scan); assay type: biochemical; parameters: key to Response Acrylodan Shape / Response Badan Shape / Response Badan Intensity: m, monochromatic; d, dichromatic (i.e. spectral shape changes); 0, no change
From the text: Semi-synthetic FRSs can be engineered by site-specifically attaching thiol-reactive, environmentally sensitive fluorophores that respond to ligand-mediated conformational changes. Identification of FRS candidates that can be used for sensing applications comprises three steps: • 1. Cysteine scan. Mutant lactate-binding proteins containing single cysteines are constructed for site-specific attachment of thiol-reactive fluorophores. […] Candidate positions fall into three classes: endosteric, replacing a residue that contacts the ligand directly; peristeric, located at the rim of the binding site; allosteric (Marvin et al., 1997, Proc Natl Acad Sci USA, 94, 4366-71; Marvin, 1998, J Am Chem Soc, 120, 7-11), located outside the binding site at sites that undergo local structural changes in concert with the hinge-bending motion. • 2. Fluorophore screening. Thiol-reactive, environmentally sensitive fluorophores are attached to each cysteine mutant prepared in step 1. • 3. Evaluation of the lactate-mediated change of all the fluorescent conjugates prepared in step 2. Responses to ligand binding in which there is both a change in fluorescence emission intensity and spectral shape are essential for chemometric applications, because such changes enable ratiometric measurements. Changes in spectral shape typically are accompanied by a shift in the wavelength of the emission intensity maxima. Three classes of fluorescent responses are possible: • i. No response. • ii. Monochromatic response (emission intensity increases or decreases without a change in spectral shape) • iii. […] Hypsochromatic: emission intensity shifts to shorter wavelengths upon binding ligand (“blue shift”). • ii. Bathochromatic: emission intensity shifts to longer wavelengths upon binding ligand (“red shift”). • 4.
We constructed seventeen single cysteine mutants in msLacBP6, exploring one endosteric, fourteen peristeric, and two allosteric positions. Two dominant electronic transitions give rise to fluorescence emission in these fluorophores with maxima in the blue (<500 nm) and green (>500 nm) regions, respectively.

[3] = Acrylodan conjugate of msLacBP6 cysteine mutant, response to lactate
[4] = Badan conjugate of msLacBP6 cysteine mutant, response to lactate

Molecule	Thermostability apoTm [1] [°C]	further results
B1	48	
B2	49	
B3	46	
B4	70	mid-point denaturation temperature [1]: 70 °C
B5	60	
B6		Response Acrylodan Intensity [2, 3]: +; Response Acrylodan Shape [2, 3]: d^f; Response Badan Intensity [2, 4]: 0; Response Badan Shape [2, 4]: d^f
B7	>100	fluorescence response to lactate ([2]; in words): strong dichromatic responses
B8	>100	
B9	48	
